Reference: article PMC5048593

What was measured:
Experiment in all cases: ITC
[1] = target: p107^ΔPL containing six mutations to the Rb sequence (p107^6x) (human) (UniProt P28749)
[2] = target: p107^ΔPL V490K (human) (UniProt P28749)
[3] = target: p107^ΔPL E560H (human) (UniProt P28749)
[4] = target: p107^ΔPL H797R (human) (UniProt P28749)
[5] = target: phosphorylated p107^ΔPL982 (human) (UniProt P28749)
[6] = target: Rb pocket domain lacking its large internal loop (Rb^ΔPL: residues 380–787 with 581–642 deleted) (human) (UniProt P06400)

Q: “E2F1 transactivation domain (E2F1^TD) (domain or fragment)” was tested. Which fold higher affinity than p107^ΔPL [1] did it give?
A: 3 fold

Q: Which fold increase in affinity over p107^ΔPL [2] does the source give for “E2F2 transactivation domain (E2F2^TD) (domain or fragment)” here?
A: 3 fold

Q: And the fold increase in affinity over p107^ΔPL [3]?
A: 3 fold

Q: And the fold higher affinity than p107^ΔPL [1]?
A: 24 fold

Q: And the fold increase in affinity over p107^ΔPL [4]?
A: 3 fold

Q: Which fold reduction in affinity against unphosphorylated p107^ΔPL982 [5] does the source give for “E2F4 transactivation domain (E2F4^TD) (domain or fragment)” here?
A: 3 fold

Q: Which fold increase in affinity over wild-type E2F4^TD [6] does the source give for E2F4^TD N395G (domain or fragment) here?
A: 5 fold
